Data as given in paper PMC3241732 (The Journal of Cell Biology, 2011).

T1: His6-Cdc12 (Saccharomyces cerevisiae, UniProt P32468 1-407)
T1 sequence: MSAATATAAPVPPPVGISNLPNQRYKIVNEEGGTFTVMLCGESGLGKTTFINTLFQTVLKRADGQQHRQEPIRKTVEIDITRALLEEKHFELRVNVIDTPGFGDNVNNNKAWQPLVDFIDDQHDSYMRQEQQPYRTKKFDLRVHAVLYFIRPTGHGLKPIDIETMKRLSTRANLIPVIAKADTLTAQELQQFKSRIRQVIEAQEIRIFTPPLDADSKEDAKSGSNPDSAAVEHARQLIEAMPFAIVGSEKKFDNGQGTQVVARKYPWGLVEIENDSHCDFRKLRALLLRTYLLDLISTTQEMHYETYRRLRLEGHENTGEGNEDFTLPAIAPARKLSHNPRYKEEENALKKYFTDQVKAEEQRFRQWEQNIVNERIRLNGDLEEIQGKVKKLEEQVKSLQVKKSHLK


Molecular target: T1, His6-Cdc12
Assay: negative-stain EM, single-particle class averages

percent of particles that are octamers	percent of particles that are heptamers	percent of particles that are hexamers	Binder
72%			Shs1(Δ349–551) (domain or fragment) MSTASTPPINLFRRKKEHKRGITYTMLLCGPAGTGKTAFANNLLETKIFPHKYQYGKSNASISSNPEVKVIAPTKVVSFNSKNGIPSYVSEFDPMRANLEPGITITSTSLELGGNKDQGKPEMNEDDTVFFNLIMTHGIGENLDDSLCSEEVMSYLEQQFDIVLAEETRIKRNPRFEDTRVHVALYFIEPTGHGLREVDVELMKSISKYTNVLPIITRADSFTKEELTQFRKNIMFDVERYNVPIYKFEVDPEDDDLESMEENQALASLQPFAIITSDTRDSEGRYVREYPWGIISIDDDKISDLKVLKNVLFGSHLQEFKDTTQNLLYENYRSEKLSSVANAEEIGP
47%	15%	38%	Shs1 (natural protein) MSTASTPPINLFRRKKEHKRGITYTMLLCGPAGTGKTAFANNLLETKIFPHKYQYGKSNASISSNPEVKVIAPTKVVSFNSKNGIPSYVSEFDPMRANLEPGITITSTSLELGGNKDQGKPEMNEDDTVFFNLIMTHGIGENLDDSLCSEEVMSYLEQQFDIVLAEETRIKRNPRFEDTRVHVALYFIEPTGHGLREVDVELMKSISKYTNVLPIITRADSFTKEELTQFRKNIMFDVERYNVPIYKFEVDPEDDDLESMEENQALASLQPFAIITSDTRDSEGRYVREYPWGIISIDDDKISDLKVLKNVLFGSHLQEFKDTTQNLLYENYRSEKLSSVANAEEIGPNSTKRQSNAPSLSNFASLISTGQFNSSQTLANNLRADTPRNQVSGNFKENEYEDNGEHDSAENEQEMSPVRQLGREIKQENENLIRSIKTESSPKFLNSPDLPERTKLRNISETVPYVLRHERILARQQKLEELEAQSAKELQKRIQELERKAHELKLREKLINQNKLNGSSSSINSLQQSTRSQIKKNDTYTDLASIASGRD
86%	10%	4%	Cdc11 (natural protein) MSGIIDASSALRKRKHLKRGITFTVMIVGQSGSGRSTFINTLCGQQVVDTSTTILLPTDTSTEIDLQLREETVELEDDEGVKIQLNIIDTPGFGDSLDNSPSFEIISDYIRHQYDEILLEESRVRRNPRFKDGRVHCCLYLINPTGHGLKEIDVEFIRQLGSLVNIIPVISKSDSLTRDELKLNKKLIMEDIDRWNLPIYNFPFDEDEISDEDYETNMYLRTLLPFAIIGSNEVYEMGGDVGTIRGRKYPWGILDVEDSSISDFVILRNALLISHLHDLKNYTHEILYERYRTEALSGESVAAESIRPNLTKLNGSSSSSTTTRRNTNPFKQSNNINNDVLNPASDMHGQSTGENNETYMTREEQIRLEEERLKAFEERVQQELLLKRQELLQREKELREIEARLEKEAKIKQEE
